These results are taken from patent US20090042785A1 (Pieris, published 2009).

In general, Kd refers to the concentration at which binding is half-saturated. A lower Kd goes with a tighter complex. Broadly, the koff is a measure of how fast the partners let go of each other. What is called kon is a measure of how fast the partners come together.

Assay [1] concerns the target T1, human CTLA-4-Fc (Chimerigen) (human, UniProt P16410 36-161; P01857 99-330 = IgG part, limits assumed).
T1 construct: extracellular domain;domain: Fc portion; Bought protein; also called hCTLA-4-Fc; huCTLA-4-Ig
In words: SPR as in Example 9.

Assay [2] deals with T1, human CTLA-4-Fc (Chimerigen). As to the kind of experiment: SPR; KD listed beside Tm. (Surface plasmon resonance follows binding to a sensor surface in real time, without labels.)
Assay [3] has the same target. In words: SPR, Fc fusion captured via anti-human IgG Fc.
Assay [4] shares this target. As to the kind of experiment: SPR-Affinity of the monomer towards hCTLA-4-Fc.
Assay [5] has the same target. In words: SPR-Affinity of the PEGylated monomer towards hCTLA-4-Fc.
For assay [6] the target is unchanged. In words: Affinity-ELISA of the PEGylated monomer towards hCTLA-4-Fc. A general note: In an ELISA, binding on a coated surface is turned into a signal by an enzyme label.
Assay [7] concerns the target T2, mCTLA-4-Fc (R&D Systems) (mouse, UniProt P09793 36-162). As to the kind of experiment: SPR as in Example 9.
For assay [8], the target named is T2, mCTLA-4-Fc (R&D Systems). As to the kind of experiment: SPR; KD listed beside Tm.
Assay [9] deals with T1, human CTLA-4-Fc (Chimerigen). As to the kind of experiment: SPR-Affinity towards hCTLA-4-Fc.

T2 sequence (P09793 whole entry): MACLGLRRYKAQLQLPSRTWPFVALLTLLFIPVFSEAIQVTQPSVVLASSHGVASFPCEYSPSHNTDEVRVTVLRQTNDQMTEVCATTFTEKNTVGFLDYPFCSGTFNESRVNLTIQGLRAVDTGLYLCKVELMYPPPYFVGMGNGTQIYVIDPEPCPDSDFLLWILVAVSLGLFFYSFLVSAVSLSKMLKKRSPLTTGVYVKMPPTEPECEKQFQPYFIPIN
T1 sequence (P16410 other isoform, or with tags, fused parts or gaps mutant limits assumed): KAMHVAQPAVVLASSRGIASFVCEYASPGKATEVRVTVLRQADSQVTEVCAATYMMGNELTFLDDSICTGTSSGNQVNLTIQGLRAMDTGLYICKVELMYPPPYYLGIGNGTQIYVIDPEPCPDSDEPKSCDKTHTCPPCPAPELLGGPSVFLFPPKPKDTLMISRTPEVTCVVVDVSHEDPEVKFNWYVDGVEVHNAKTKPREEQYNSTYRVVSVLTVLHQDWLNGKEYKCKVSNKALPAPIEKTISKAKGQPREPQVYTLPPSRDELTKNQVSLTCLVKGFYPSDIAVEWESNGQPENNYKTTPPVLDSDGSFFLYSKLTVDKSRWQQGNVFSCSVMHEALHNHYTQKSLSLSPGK

B1: hNGAL mutein F92.1-J08 (designed binder)
chain: QDSTSDLIPAPPLSKVPLQQNFQDNQFHGKWYVVGLAGNRILRDDQHPMNMYATIYELKEDKSYNVTSVIFPHKKCEYTIATFVPGSQPGEFTLGNIKSYGDKTSYLVRVVSTNYNQYAVVFFKLAEDNAEFFAITIYGRTKELASELKENFIRFSKSLGLPENHIVFPVPIDQCIDGSAWSHPQF
notes: also called CTLA-4-J08
In assay [1], B1 returned a Kd of 12.8 nM, a koff of 0.000116 s⁻¹ and a kon of 9240 M⁻¹ s⁻¹. The Kd in assay [2] came to 12.8 nM. In [3], this molecule yielded a Kd of 12.8 nM, a dissociation rate constant (koff) of 0.000116 s⁻¹ and a kon of 9240 M⁻¹ s⁻¹.

B2: S140.4-O10 with a free cystein residue at position 87 (designed binder)
chain: QDSTSDLIPAPPLSKVPLQQNFQDNQFHGKWYVVGLAGNRILRDDQHPMNMYATIYELKEDKSYNVTSVISSHKKCEYTIATFVPGCQPGEFTLGNIKSYGDKTSYLVRVVSTDYNQYAVVFFKLAEDNAEFFAITIYGRTKELASELKENFIRFSKSLGLPENHIVFPVPIDQCIDGSAWSHPQFEK
notes: Not PEGylated; also called O10_S87C; S87C variant
Turning to B2, the Kd in assay [4] came to 6 nM.

B3: S140.4-O10_A145C PEGylated with 12k PEG-maleimide (designed binder)
chain: QDSTSDLIPAPPLSKVPLQQNFQDNQFHGKWYVVGLAGNRILRDDQHPMNMYATIYELKEDKSYNVTSVISSHKKCEYTIATFVPGSQPGEFTLGNIKSYGDKTSYLVRVVSTDYNQYAVVFFKLAEDNAEFFAITIYGRTKELCSELKENFIRFSKSLGLPENHIVFPVPIDQCIDG
modifications: 12k PEG-maleimide on Cys 145
notes: also called O10_A145C PEGylated monomer
Regarding B3, the equilibrium dissociation constant (Kd) in assay [5] is 50 nM. The “ELISA-Affinity PEGylated Monomer” value in assay [6] is 74 nM.

B4: S140.4-O10_S146C PEGylated with 12k PEG-maleimide (designed binder)
chain: QDSTSDLIPAPPLSKVPLQQNFQDNQFHGKWYVVGLAGNRILRDDQHPMNMYATIYELKEDKSYNVTSVISSHKKCEYTIATFVPGSQPGEFTLGNIKSYGDKTSYLVRVVSTDYNQYAVVFFKLAEDNAEFFAITIYGRTKELACELKENFIRFSKSLGLPENHIVFPVPIDQCIDG
modifications: 12k PEG-maleimide on Cys 146
notes: also called O10_S146C PEGylated monomer
As to B4, binding in assay [5] was put at a Kd of 50 nM. Also, the “ELISA-Affinity PEGylated Monomer” value in [6] worked out at 100 nM.

B5: hNGAL mutein S140.3-P07 (designed binder)
chain: QDSTSDLIPAPPLSKVPLQQNFQDNQFHGKWYVVGLAGNRILRDDQHPMNMYATIYELKEDKSYNVTSVIFPHKKCEYTIATFVPGSQPGEFTLGNIKSYGDKTSYLVRVVSTDYNQYAVVFFKLAEDDAEFFAITIYGRTKELASELKENFIRFSKSLGLPENHIVFPVPIDQCIDG
notes: tagged entry not tied to the name; not shown: N-terminal T7 detection tag from vector phNGAL37; C-terminal Strep-tag II from vector phNGAL37
In the case of B5, the Kd in assay [1] came to 29 nM; in [7] it was 98 nM; in assay [2], 29 nM; in assay [8], 98 nM. In addition, the koff in assay [1] was 0.000319 s⁻¹; in [7] it was 0.000666 s⁻¹. Moreover, the kon was found to be 11000 M⁻¹ s⁻¹ in [1] and 6800 M⁻¹ s⁻¹ in assay [7].

B6: S140.4-O10_S158C (designed binder)
chain: QDSTSDLIPAPPLSKVPLQQNFQDNQFHGKWYVVGLAGNRILRDDQHPMNMYATIYELKEDKSYNVTSVISSHKKCEYTIATFVPGSQPGEFTLGNIKSYGDKTSYLVRVVSTDYNQYAVVFFKLAEDNAEFFAITIYGRTKELASELKENFIRFSKCLGLPENHIVFPVPIDQCIDG
notes: Produced from phNGAL15 without the T7 tag
Turning to B6, in assay [4], the Kd amounted to 13 nM.

B7: S140.4-O10_E143C PEGylated with 12k PEG-maleimide (designed binder)
chain: QDSTSDLIPAPPLSKVPLQQNFQDNQFHGKWYVVGLAGNRILRDDQHPMNMYATIYELKEDKSYNVTSVISSHKKCEYTIATFVPGSQPGEFTLGNIKSYGDKTSYLVRVVSTDYNQYAVVFFKLAEDNAEFFAITIYGRTKCLASELKENFIRFSKSLGLPENHIVFPVPIDQCIDG
modifications: 12k PEG-maleimide on Cys 143
notes: also called O10_E143C PEGylated monomer
In turn, B7 gave a dissociation constant Kd in assay [5] of 85 nM. Further, in assay [6], the “ELISA-Affinity PEGylated Monomer” value is 103 nM.

B8: hNGAL mutein S140.2-P24 (designed binder)
chain: QDSTSDLIPAPPLSKVPLQQNFQDNQFHGKWYVVGLAGNRILRDDQHPMDMYATIYELKEDKSYNVTSVISSHKKCEYTIATFVPGSQPGEFTLGNIKSYGDKTSYLVRVVSTDYSQYAVVFFKLAEDNAEFFAITIYGRTKELASELKENFIRFSKSLGLPENHIVFPVPIDQCIDG
notes: as for B5
Take B8: the Kd in assay [1] was determined as 20 nM; in assay [7] it was 47 nM; in assay [2] it was 20 nM; in assay [8], 47 nM. Besides, the dissociation rate constant (koff) in assay [1] is 0.00028 s⁻¹; in assay [7], 0.000705 s⁻¹. The kon came out at 14000 M⁻¹ s⁻¹ in assay [1] and 15000 M⁻¹ s⁻¹ in assay [7].

B9: S140.4-O10_Q88C (designed binder)
chain: QDSTSDLIPAPPLSKVPLQQNFQDNQFHGKWYVVGLAGNRILRDDQHPMNMYATIYELKEDKSYNVTSVISSHKKCEYTIATFVPGSCPGEFTLGNIKSYGDKTSYLVRVVSTDYNQYAVVFFKLAEDNAEFFAITIYGRTKELASELKENFIRFSKSLGLPENHIVFPVPIDQCIDG
notes: as for B6
B9 had a Kd in assay [4] of 15 nM.

B10: S140.4-O10_T141C PEGylated with 12k PEG-maleimide (designed binder)
chain: QDSTSDLIPAPPLSKVPLQQNFQDNQFHGKWYVVGLAGNRILRDDQHPMNMYATIYELKEDKSYNVTSVISSHKKCEYTIATFVPGSQPGEFTLGNIKSYGDKTSYLVRVVSTDYNQYAVVFFKLAEDNAEFFAITIYGRCKELASELKENFIRFSKSLGLPENHIVFPVPIDQCIDG
modifications: 12k PEG-maleimide on Cys 141
notes: also called O10_T141C PEGylated monomer
B10 showed a Kd in assay [5] of 69 nM. The “ELISA-Affinity PEGylated Monomer” value in assay [6] amounted to 82 nM.

B11: S140.4-O10_T141C (designed binder)
chain: QDSTSDLIPAPPLSKVPLQQNFQDNQFHGKWYVVGLAGNRILRDDQHPMNMYATIYELKEDKSYNVTSVISSHKKCEYTIATFVPGSQPGEFTLGNIKSYGDKTSYLVRVVSTDYNQYAVVFFKLAEDNAEFFAITIYGRCKELASELKENFIRFSKSLGLPENHIVFPVPIDQCIDG
notes: as for B6
Molecule B11 gave an equilibrium dissociation constant (Kd) in [4] of 4 nM.

B12: S140.4-O10_S14C (designed binder)
chain: QDSTSDLIPAPPLCKVPLQQNFQDNQFHGKWYVVGLAGNRILRDDQHPMNMYATIYELKEDKSYNVTSVISSHKKCEYTIATFVPGSQPGEFTLGNIKSYGDKTSYLVRVVSTDYNQYAVVFFKLAEDNAEFFAITIYGRTKELASELKENFIRFSKSLGLPENHIVFPVPIDQCIDG
notes: as for B6
The molecule B12 gave a Kd in [4] of 13 nM.

B13: hNGAL mutein S140.1-F09 (designed binder)
chain: QDSTSDLIPAPPLSKVPLQQNFQDNQFHGKWYVVGLAGNRILRDDQHPMNMYATIYELKEDKSYNVTSVISSHKKCEYTIATFVPGSQPGEFTLGNIKSYGDKTSYLVRVVSTNYNQYAVVFFKLAEDNAEFFAITIYGRTKELASELKENFIRFSKSLGLPENHIVFPVPIDQCIDG
notes: as for B5
For the molecule B13, the Kd in assay [1] amounted to 7.8 nM; in assay [7], 27.9 nM; in [2] it was 7.8 nM; in assay [8] it was 27.9 nM. In addition, the figures for the koff in assay [1] and in [7] were approximately 9.2e-05 s⁻¹ and 0.000379 s⁻¹, respectively. The kon in assay [1] is 11800 M⁻¹ s⁻¹; in assay [7] it was 14000 M⁻¹ s⁻¹.

B14: hNGAL mutein S140.4-B16 (designed binder)
chain: QDSTSDLIPAPPLSKVPLQQNFQDNQFHGKWYVVGLAGNRILRDDQHPMNMYATIYELKEDKSYNVTSVIFPHKKCEYTIATFVPGSQPGEFTLSDIKSYGDKTSYLVRVVSTDYNQYAVVFFKLAEDNAEFFAITIYGRTKELASELKENFIRFSKSLGLPENHIVFPVPIDQCIDG
notes: as for B5
For B14, the Kd in assay [1] came out at 68 nM; in assay [7], 112 nM; in assay [2] it was 68 nM; in assay [8], 112 nM. The koff is 0.000418 s⁻¹ in [1] and 0.00056 s⁻¹ in assay [7]. Besides, the kon in [1] stood at 6160 M⁻¹ s⁻¹; in assay [7], 5000 M⁻¹ s⁻¹.

B15: S140.4-O10_S146C (designed binder)
chain: QDSTSDLIPAPPLSKVPLQQNFQDNQFHGKWYVVGLAGNRILRDDQHPMNMYATIYELKEDKSYNVTSVISSHKKCEYTIATFVPGSQPGEFTLGNIKSYGDKTSYLVRVVSTDYNQYAVVFFKLAEDNAEFFAITIYGRTKELACELKENFIRFSKSLGLPENHIVFPVPIDQCIDG
notes: as for B6
In [4], B15 came in with a Kd of 9 nM.

B16: S140.4-O10_V84C (designed binder)
chain: QDSTSDLIPAPPLSKVPLQQNFQDNQFHGKWYVVGLAGNRILRDDQHPMNMYATIYELKEDKSYNVTSVISSHKKCEYTIATFCPGSQPGEFTLGNIKSYGDKTSYLVRVVSTDYNQYAVVFFKLAEDNAEFFAITIYGRTKELASELKENFIRFSKSLGLPENHIVFPVPIDQCIDG
notes: as for B6
For the molecule B16, in assay [4], the Kd was 15 nM.

B17: S140.4-O10_V84C PEGylated with 12k PEG-maleimide (designed binder)
chain: QDSTSDLIPAPPLSKVPLQQNFQDNQFHGKWYVVGLAGNRILRDDQHPMNMYATIYELKEDKSYNVTSVISSHKKCEYTIATFCPGSQPGEFTLGNIKSYGDKTSYLVRVVSTDYNQYAVVFFKLAEDNAEFFAITIYGRTKELASELKENFIRFSKSLGLPENHIVFPVPIDQCIDG
modifications: 12k PEG-maleimide on Cys 84
notes: also called O10_V84C PEGylated monomer
Consider B17, for which the affinity in assay [5], expressed as Kd, was 97 nM. In assay [6], the “ELISA-Affinity PEGylated Monomer” value turned out to be 100 nM.

B18: S140.4-O10-CH4 (fusion with the CH4 domain of the human IgE-Fc portion) (designed binder)
chain: QDSTSDLIPAPPLSKVPLQQNFQDNQFHGKWYVVGLAGNRILRDDQHPMNMYATIYELKEDKSYNVTSVISSHKKCEYTIATFVPGSQPGEFTLGNIKSYGDKTSYLVRVVSTDYNQYAVVFFKLAEDNAEFFAITIYGRTKELASELKENFIRFSKSLGLPENHIVFPVPIDQCIDGSTTKTSGPRAAPEVYAFATPEWPGSRDKRTLACLIQNFMPEDISVQWLHNEVQLPDARHSTTQPRKTKGSGFFVFSRLEVTRAEWEQKDEFICRAVHEAASPSQTVQRAVSVNPESSRSGGCSAWSHPQFEK
modifications: The molecule is a homodimer formed through the CH4 domain (the patent calls it the CH4-dimer). One copy of the chain is given.
notes: Fused for dimerization; CH4 domain between the mutein and the C-terminal Strep tag; also called CH4-dimer
In the case of B18, the Kd in assay [9] amounted to 0.8 nM.
